Experimental data taken from PMC4427203 (2015).

Target: Hsp90 600-709 (Saccharomyces cerevisiae (strain ATCC …, UniProt P02829))
Test: Kd quoted from earlier work (method not stated here)

- Kd: 13.3 µM
B1: AIP 172-315 (protein)
chain: DEEKAKAVPLIHQEGNRLYREGHVKEAAAKYYDAIACLKNLQMKEQPGSPEWIQLDQQITPLLLNYCQCKLVVEEYYEVLDHCSSILNKYDDNVKAYFKRGKAHAAVWNAQEAQADFAKVLELDPALAPVVSRELRALEARIRQ
